The assay deals with T1, GST (UniProt P08515 1-218 = GST).
T1 construct: Control for the GST fusion baits; also called glutathione S-transferase (control)
Briefly: GST pull down of recombinant CypD, CypD immunoblot.

T1 sequence (P08515 whole entry, the tested form may be a part): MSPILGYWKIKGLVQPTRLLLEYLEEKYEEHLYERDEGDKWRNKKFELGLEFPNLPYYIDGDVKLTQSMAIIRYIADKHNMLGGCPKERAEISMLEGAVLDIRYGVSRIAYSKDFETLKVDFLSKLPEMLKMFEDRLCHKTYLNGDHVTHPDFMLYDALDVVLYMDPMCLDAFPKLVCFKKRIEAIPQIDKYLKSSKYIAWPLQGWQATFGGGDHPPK

B1: recombinant CypD (purified, in solution) (enzyme)
chain: not shown
As for B1, the binding result was “no binding”.
